Measurements as given in PMC5720770.

Biological target: T1, OxyR (Pseudomonas aeruginosa (PAO1?)) (UniProt Q9HTL4)
T1 sequence: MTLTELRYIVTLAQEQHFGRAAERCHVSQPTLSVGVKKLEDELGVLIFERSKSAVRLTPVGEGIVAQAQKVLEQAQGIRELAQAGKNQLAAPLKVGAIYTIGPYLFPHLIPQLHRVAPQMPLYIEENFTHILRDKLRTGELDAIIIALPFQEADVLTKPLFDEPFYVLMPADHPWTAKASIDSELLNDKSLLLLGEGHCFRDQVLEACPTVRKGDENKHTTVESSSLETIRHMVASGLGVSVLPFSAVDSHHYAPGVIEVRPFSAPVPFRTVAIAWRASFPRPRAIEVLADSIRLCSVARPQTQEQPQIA
Assay: DNase I footprinting
Conditions: Footprint: 20 mM Tris-HCl pH 7.0, 50 mM KCl, 1 mM EDTA, 5% glycerol, 50 ug/ml BSA, 5 ug/ml calf thymus DNA, 0.5 ug/ml poly(dI-dC), 25 C, 15 min; EMSA: Roche …

CAGGCGCTCGGCGGCGCGGGTGAAACTGCCTTCGCGGGCGACGGCGTCGAAGGCGCGGAGCTGGAAGAGATTCATGGTATCGGCCTGGCTTATGGCTGGCATCGGAACAAACAATTTGAACGATAGTAGCGCGGCGCTCACCTTATGTCTCCAGGCTTCCCTGGAACGCCGGCGCGGAACGACCGCCCGGACCGCGAAG (double strand) [phnW promoter 199-bp fragment (footprint)]
binding: binds
